# Assay results as given in US20100215651A1 (GLENMARK PHARMACEUTICALS S A, published 2010).
# Changes are numbered by the printed parent chain. In names and notes the source's numbering stands.
# T1: human CD19 (human, UniProt P15391 20-556)
# T1 sequence: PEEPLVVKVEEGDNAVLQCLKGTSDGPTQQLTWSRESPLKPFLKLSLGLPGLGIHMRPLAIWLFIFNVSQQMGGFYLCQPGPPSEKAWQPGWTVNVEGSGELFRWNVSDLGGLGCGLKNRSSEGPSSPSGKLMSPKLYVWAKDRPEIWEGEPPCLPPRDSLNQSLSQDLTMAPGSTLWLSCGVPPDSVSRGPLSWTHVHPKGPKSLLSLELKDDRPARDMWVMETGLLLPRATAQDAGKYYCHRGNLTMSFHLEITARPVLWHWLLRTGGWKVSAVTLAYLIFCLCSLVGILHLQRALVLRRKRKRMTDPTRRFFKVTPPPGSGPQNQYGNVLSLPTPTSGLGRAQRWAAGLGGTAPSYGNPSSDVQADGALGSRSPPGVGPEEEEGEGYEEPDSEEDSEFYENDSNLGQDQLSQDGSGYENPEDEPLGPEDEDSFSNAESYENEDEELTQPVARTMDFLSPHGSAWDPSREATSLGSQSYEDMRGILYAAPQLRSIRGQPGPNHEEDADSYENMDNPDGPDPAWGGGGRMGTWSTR
# B1: VH16-R94K/VL43-V3Q-T7S-P44I-N92A (antibody, human IgG1, kappa, V domains shown)
# VH: QVQLVQSGGGVVQPGRSLRLSCAASGVSLPDYGVSWVRQAPGKGLEWVAVIWGSETTYYNSALKSRFTISRDNSKNTLYLQMNSLRAEDTAVYYCAKHYYYGGSYAMDYWGQGTLVTVSS
# VL: DIQMTQSPSSLSASVGDRVTITCRASQDISKYLNWYQQKPGKAIKLLIYHTSRLHSGVPSRFSGSGSGTDFTLTISSLQPEDFATYYCQQGATLPYTFGPGTKVDIKR
# notes: human IgG1/kappa
# B2: VH16/VL43 (antibody, human IgG1, V domains shown)
# VH: B1 VH with K97R
# VL: B1 VL with Q3V, S7T, I44P, A92N
# B3: VH16 R94K/Y97F/VL43 V3Q/T7S/Y32F/N92A (antibody, human IgG1, name in Kabat numbering, V domains shown)
# VH: B1 VH with Y100F
# VL: B1 VL with Y32F, I44P
# notes: substitutions in Kabat numbering
# B4: VH16 Y32F/R94K/Y97F/VL43 V3Q/T7S/Y32F/N92A (antibody, human IgG1, name in Kabat numbering, V domains shown)
# VH: B1 VH with Y32F, Y100F
# VL: B1 VL with Y32F, I44P
# notes: as for B3
# B5: VH16-Q6E/VL43-V3Q/T7S (antibody, human IgG1, name in Kabat numbering, V domains shown)
# VH: B1 VH with Q6E, K97R
# VL: B1 VL with I44P, A92N
# notes: as for B3
# B6: VH16-Y32F-R94K-Y97F/VL43-V3Q-T7S-N92A (antibody, human IgG1, name in Kabat numbering, V domains shown)
# VH: B1 VH with Y32F, Y100F
# VL: B1 VL with I44P
# notes: as for B3
# B7: VH16/VL43-V3Q/T7S (antibody, human IgG1, V domains shown)
# VH: B1 VH with K97R
# VL: B1 VL with I44P, A92N
# notes: as for B3
# B8: VH16-R94K/VL43 (antibody, human IgG1)
# heavy: not shown
# VL: DIVMTQTPSSLSASVGDRVTITCRASQDISKYLNWYQQKPGKAPKLLIYHTSRLHSGVPSRFSGSGSGTDFTLTISSLQPEDFATYYCQQGNTLPYTFGPGTKVDIKRTVAA
# notes: Full-length human IgG1/kappa
# B9: VH16 R94K VL43 N92A (antibody, human IgG1)
# heavy: not shown
# VL: B8 VL with N92A
# notes: Full-length human IgG1/kappa; substitutions in Kabat numbering
# B10: VH16 R94K VL43 P44I (antibody, human IgG1, V domains shown)
# VH: B1 VH
# VL: B1 VL with Q3V, S7T, A92N
# notes: as for B9
# B11: VH16 R94K VL43 T93A (antibody, human IgG1, V domains shown)
# VH: B1 VH
# VL: B1 VL with Q3V, S7T, I44P, A92N, T93A
# notes: as for B9
# B12: VH16 R94K VL43 T93V (antibody, human IgG1, V domains shown)
# VH: B1 VH
# VL: B1 VL with Q3V, S7T, I44P, A92N, T93V
# notes: Full-length human IgG1/kappa; substitutions in Kabat numbering; also called VK16 R94K VL43 T93V
# B13: VH16-R94K/VL43-V3Q/T7S (antibody, human IgG1)
# heavy: not shown
# VL: B8 VL with V3Q, T7S
# notes: as for B9
# B14: VH5VL40 (antibody, V domains shown)
# VH: EVQLVESGGGLVKPGGSLRLSCAASGVSLPDYGVSWIRQAPGKGLEWVSVIWGSETTYYNSALKSRFTISRDNAKNSLYLQMDSLRVEDTAVYYCAGHYYYGGSYAMDYWGQGTLVTVSS
# VL: B1 VL with Q3V, S7T, A43V, I44P, K45N, D70E, A92N, P100G, D105E
# B15: VH16 R94K VL43 F71H (antibody, human IgG1, V domains shown)
# VH: B1 VH
# VL: DIVMTQTPSSLSASVGDRVTITCRASQDISKYLNWYQQKPGKAPKLLIYHTSRLHSGVPSRFSGSGSGTDHTLTISSLQPEDFATYYCQQGNTLPYTFGPGTKVDIK
# B16: VH16 R94K VL43 F71S (antibody, human IgG1, V domains shown)
# VH: B1 VH
# VL: B15 VL with H71S
# B17: VH16 R94K VL43 F71T (antibody, human IgG1, V domains shown)
# VH: B1 VH
# VL: B15 VL with H71T
# Tests used:
# human CD19 [1] = target: T1, human CD19; assay: cell-based or functional assay
# human CD19 [2] = target: T1, human CD19; assay: flow cytometry, Raji cells, MPF vs chimeric FMC63
# Experimental: (§1) Binding of the CD19 humanized monoclonal antibodies by flow cytometry to Raji tumor cells (human Burkitt lymphoma, DSMZ ACC319), NALM-6 (human B cell precursor leukemia, DSMZ ACC128) and SU-DHL-6 (human B cell lymphoma, DSMZ ACC572) (all cell lines from DSMZ Braunschweig, Deutschland) was assessed. Cells were incubated with serial dilutions of each humanized monoclonal antibody. An irrelevant human IgG1 was used as a negative control. The cells were washed and detected by a phycoerythrin-labeled (PE) anti-human secondary antibody (eBioscience, CA, USA) and analyzed by flow cytometry. […] From MFI versus antibody concentration curves, Mid-Point Fluorescence (MPF) value for each anti-CD19 humanized antibody was calculated using the software GraphPad Prism 5 (CA, USA).
# human CD19 [3] = target: T1, human CD19; assay: competition with 0.2 nM Eu3+-labelled chimeric FMC63 on Raji cells
# Experimental: To that aim, 100 μl volumes of Raji cells in RPMI-1640 medium (Chemie Brunschwig AG, PAA, Basel, Switzerland) supplemented with 10% fetal bovine serum (FBS, Chemie Brunschwig AG, PAA, Basel, Switzerland), 2 mM ultraglutamine 1 (Lonza, Verviers, Belgium) and 1% penicillin/streptomycin (Chemie Brunschwig AG, PAA, Basel, Switzerland), prepared at concentration of 1×10⁶ cells/ml were seeded in a U-bottomed 96-well plate. […] The antibody dilutions were cooled down to 4° C. before 100 μl was taken and added on the Raji cells. […] Cells were incubated with the antibodies for 15 minutes on ice. After reaching equilibrium, the cells were centrifuged at 1300 RPM for 2 minutes and supernatant was discarded. Cell pellets were washed twice with 200 μl of cold binding buffer PBS-2.5% FBS-0.05% NaN₃, and resuspended into 100 μl of Delfia solution. Cell bound Eu³+-FMC63 was measured with time resolved fluorescence as described above. The amount of Eu³+-FMC63 (fmole) per well was determined and plotted versus the total amount of unlabelled antibody.
# human CD19 [4] = target: T1, human CD19; assay: flow cytometry on SU-DHL-6 cells, PE-labelled anti-human secondary antibody, MFI against antibody concentration
# Experimental: as §1
# human CD19 [5] = target: T1, human CD19; assay: flow cytometry, Raji cells, MPF vs chimeric FMC63; remark: listed apart in the source
# Experimental: as §1
# human CD19 [6] = target: T1, human CD19; assay: flow cytometry, Raji cells, MPF vs chimeric FMC63; remark: listed apart in the source
# Experimental: as §1
# human CD19 [7] = target: T1, human CD19; assay: flow cytometry, NALM-6 cells, MPF vs chimeric FMC63
# Experimental: as §1
# human CD19 [8] = target: T1, human CD19; assay: flow cytometry on Raji cells
# Experimental: as §1
# human CD19 [9] = target: T1, human CD19; assay: Scatchard analysis, Eu3+-labelled antibody on Raji cells
# Experimental: (§2) Raji cells as described in Example 2 were grown in RPMI-1640 medium (Chemie Brunschwig AG, PAA, Basel, Switzerland) supplemented with 10% fetal bovine serum (FBS, Chemie Brunschwig AG, PAA, Basel, Switzerland), 2 mM ultraglutamine 1 (Lonza, Verviers, Belgium) and 1% penicillin/streptomycin (Chemie Brunschwig AG, PAA, Basel, Switzerland). The cells were washed with the same culture medium and adjusted to a final concentration of 1×10⁶ cells/ml. A 100 μl volume of Raji cells was seeded in U-bottomed 96-well plate. […] Cells were incubated with Eu³⁺-antibody for 15 minutes on ice to reach equilibrium. The amount of free Eu³⁺-labelled antibodies were measured by transferring aliquots of cell-free supernatant (volumes were empirically adjusted depending on antibody concentration; cells were spun at 1300 RPM for 2 min) into a fresh plate containing 100 μl of Delfia solution (PerkinElmer, MA, USA; an enhancer of Eu³⁺ fluorescence). To ensure complete removal of the supernatant, cells were spin down once more at 1300 RPM for 2 minutes. After the second centrifugation, the supernatant was discarded, and cells were washed twice with 200 μl of cold binding buffer (PBS-2.5% FBS-0.05% NaN₃). Cell pellets were resuspended into 100 μl of Delfia solution.
# human CD19 [10] = target: T1, human CD19; assay: Scatchard analysis (Bound/Free against Bound) of europium-labelled antibody on Raji cells, time resolved fluorescence
# Experimental: as §2
# human CD19 [11] = target: T1, human CD19; assay: flow cytometry on Raji cells, PE-labelled anti-human secondary antibody, MFI against antibody concentration
# Experimental: These immunoglobulins were assessed for antigen-binding affinity by half-maximal binding assays on B-cell lymphoma cell-lines (FACS) and compared to a chimeric version of FMC63 (this was to standardized level of staining from the anti-human Fc PE-labeled detection-antibody, as described in Example 2).
# as §1
# human CD19 [12] = target: T1, human CD19; assay: binding to Raji cells
binder,measurement,setting,value
B1,"ADCC: specific lysis of Raji cells by PBMC (LDH release), against IgG1 control",human CD19 [1],≥ 3 fold
same,relative MPF (% of chimeric FMC63),human CD19 [2],83.3%
same,Ki,human CD19 [3],3.9 nM
same,EC50 (read off the curve),human CD19 [4],~0.09 µg/mL
B2,relative MPF (% of chimeric FMC63),human CD19 [2],7.42%
same,relative MPF (% of chimeric FMC63),human CD19 [5],7.14%
same,relative MPF (% of chimeric FMC63),human CD19 [6],7.14%
same,relative MPF (% of chimeric FMC63),human CD19 [7],3.29%
same,Ki,human CD19 [3],72.8 nM
B3,binding result,human CD19 [8],no binding
B4,binding result,human CD19 [8],no binding
B5,relative MPF (% of chimeric FMC63),human CD19 [5],5.68%
B6,relative MPF (% of chimeric FMC63),human CD19 [2],16.9%
same,Ki,human CD19 [3],49.9 nM
B7,relative MPF (% of chimeric FMC63),human CD19 [5],4.93%
B8,relative MPF (% of chimeric FMC63),human CD19 [2],27.1%
same,relative MPF (% of chimeric FMC63),human CD19 [5],26.8%
same,relative MPF (% of chimeric FMC63),human CD19 [6],26.8%
same,relative MPF (% of chimeric FMC63),human CD19 [7],14.4%
same,Kd,human CD19 [9],47 nM
same,Ki,human CD19 [3],7.6 nM
same,EC50 (read off the curve),human CD19 [4],~0.2 µg/mL
B9,relative MPF (% of chimeric FMC63),human CD19 [6],25.9%
B10,EC50 (read off the curve),human CD19 [4],~0.09 µg/mL
same,Kd,human CD19 [10],19 nM
B11,relative MPF (% of chimeric FMC63),human CD19 [6],34.1%
B12,relative MPF (% of chimeric FMC63),human CD19 [6],17.4%
B13,relative MPF (% of chimeric FMC63),human CD19 [5],27.8%
B14,binding result,human CD19 [11],no binding (tested: about 10 ug/ml (Log(ug/ml) about 1))
B15,binding result,human CD19 [12],binds
B16,binding result,human CD19 [12],binds
B17,binding result,human CD19 [12],binds
